In paper PMC12733864 (International Journal of Molecular Sciences, 2025):

Molecular target: T1, recombinant D III domain of the WNV structural E glycoprotein (West Nile virus; strain of the …, UniProt Q9Q6P4)
T1 construct: also called recombinant DIII protein; recombinant analog of D III of WNV glycoprotein E
Assay: BLI; Octet K2, NTA biosensors loaded with recombinant DIII (20 ug/mL); antibodies in solution at five concentrations from 10.4 to 166.4 nM; PBS; global fit of the 1:1 model; triplicate
Conditions: both partners purified

T1 sequence (Q9Q6P4 whole entry, looked up, the tested form may be a part): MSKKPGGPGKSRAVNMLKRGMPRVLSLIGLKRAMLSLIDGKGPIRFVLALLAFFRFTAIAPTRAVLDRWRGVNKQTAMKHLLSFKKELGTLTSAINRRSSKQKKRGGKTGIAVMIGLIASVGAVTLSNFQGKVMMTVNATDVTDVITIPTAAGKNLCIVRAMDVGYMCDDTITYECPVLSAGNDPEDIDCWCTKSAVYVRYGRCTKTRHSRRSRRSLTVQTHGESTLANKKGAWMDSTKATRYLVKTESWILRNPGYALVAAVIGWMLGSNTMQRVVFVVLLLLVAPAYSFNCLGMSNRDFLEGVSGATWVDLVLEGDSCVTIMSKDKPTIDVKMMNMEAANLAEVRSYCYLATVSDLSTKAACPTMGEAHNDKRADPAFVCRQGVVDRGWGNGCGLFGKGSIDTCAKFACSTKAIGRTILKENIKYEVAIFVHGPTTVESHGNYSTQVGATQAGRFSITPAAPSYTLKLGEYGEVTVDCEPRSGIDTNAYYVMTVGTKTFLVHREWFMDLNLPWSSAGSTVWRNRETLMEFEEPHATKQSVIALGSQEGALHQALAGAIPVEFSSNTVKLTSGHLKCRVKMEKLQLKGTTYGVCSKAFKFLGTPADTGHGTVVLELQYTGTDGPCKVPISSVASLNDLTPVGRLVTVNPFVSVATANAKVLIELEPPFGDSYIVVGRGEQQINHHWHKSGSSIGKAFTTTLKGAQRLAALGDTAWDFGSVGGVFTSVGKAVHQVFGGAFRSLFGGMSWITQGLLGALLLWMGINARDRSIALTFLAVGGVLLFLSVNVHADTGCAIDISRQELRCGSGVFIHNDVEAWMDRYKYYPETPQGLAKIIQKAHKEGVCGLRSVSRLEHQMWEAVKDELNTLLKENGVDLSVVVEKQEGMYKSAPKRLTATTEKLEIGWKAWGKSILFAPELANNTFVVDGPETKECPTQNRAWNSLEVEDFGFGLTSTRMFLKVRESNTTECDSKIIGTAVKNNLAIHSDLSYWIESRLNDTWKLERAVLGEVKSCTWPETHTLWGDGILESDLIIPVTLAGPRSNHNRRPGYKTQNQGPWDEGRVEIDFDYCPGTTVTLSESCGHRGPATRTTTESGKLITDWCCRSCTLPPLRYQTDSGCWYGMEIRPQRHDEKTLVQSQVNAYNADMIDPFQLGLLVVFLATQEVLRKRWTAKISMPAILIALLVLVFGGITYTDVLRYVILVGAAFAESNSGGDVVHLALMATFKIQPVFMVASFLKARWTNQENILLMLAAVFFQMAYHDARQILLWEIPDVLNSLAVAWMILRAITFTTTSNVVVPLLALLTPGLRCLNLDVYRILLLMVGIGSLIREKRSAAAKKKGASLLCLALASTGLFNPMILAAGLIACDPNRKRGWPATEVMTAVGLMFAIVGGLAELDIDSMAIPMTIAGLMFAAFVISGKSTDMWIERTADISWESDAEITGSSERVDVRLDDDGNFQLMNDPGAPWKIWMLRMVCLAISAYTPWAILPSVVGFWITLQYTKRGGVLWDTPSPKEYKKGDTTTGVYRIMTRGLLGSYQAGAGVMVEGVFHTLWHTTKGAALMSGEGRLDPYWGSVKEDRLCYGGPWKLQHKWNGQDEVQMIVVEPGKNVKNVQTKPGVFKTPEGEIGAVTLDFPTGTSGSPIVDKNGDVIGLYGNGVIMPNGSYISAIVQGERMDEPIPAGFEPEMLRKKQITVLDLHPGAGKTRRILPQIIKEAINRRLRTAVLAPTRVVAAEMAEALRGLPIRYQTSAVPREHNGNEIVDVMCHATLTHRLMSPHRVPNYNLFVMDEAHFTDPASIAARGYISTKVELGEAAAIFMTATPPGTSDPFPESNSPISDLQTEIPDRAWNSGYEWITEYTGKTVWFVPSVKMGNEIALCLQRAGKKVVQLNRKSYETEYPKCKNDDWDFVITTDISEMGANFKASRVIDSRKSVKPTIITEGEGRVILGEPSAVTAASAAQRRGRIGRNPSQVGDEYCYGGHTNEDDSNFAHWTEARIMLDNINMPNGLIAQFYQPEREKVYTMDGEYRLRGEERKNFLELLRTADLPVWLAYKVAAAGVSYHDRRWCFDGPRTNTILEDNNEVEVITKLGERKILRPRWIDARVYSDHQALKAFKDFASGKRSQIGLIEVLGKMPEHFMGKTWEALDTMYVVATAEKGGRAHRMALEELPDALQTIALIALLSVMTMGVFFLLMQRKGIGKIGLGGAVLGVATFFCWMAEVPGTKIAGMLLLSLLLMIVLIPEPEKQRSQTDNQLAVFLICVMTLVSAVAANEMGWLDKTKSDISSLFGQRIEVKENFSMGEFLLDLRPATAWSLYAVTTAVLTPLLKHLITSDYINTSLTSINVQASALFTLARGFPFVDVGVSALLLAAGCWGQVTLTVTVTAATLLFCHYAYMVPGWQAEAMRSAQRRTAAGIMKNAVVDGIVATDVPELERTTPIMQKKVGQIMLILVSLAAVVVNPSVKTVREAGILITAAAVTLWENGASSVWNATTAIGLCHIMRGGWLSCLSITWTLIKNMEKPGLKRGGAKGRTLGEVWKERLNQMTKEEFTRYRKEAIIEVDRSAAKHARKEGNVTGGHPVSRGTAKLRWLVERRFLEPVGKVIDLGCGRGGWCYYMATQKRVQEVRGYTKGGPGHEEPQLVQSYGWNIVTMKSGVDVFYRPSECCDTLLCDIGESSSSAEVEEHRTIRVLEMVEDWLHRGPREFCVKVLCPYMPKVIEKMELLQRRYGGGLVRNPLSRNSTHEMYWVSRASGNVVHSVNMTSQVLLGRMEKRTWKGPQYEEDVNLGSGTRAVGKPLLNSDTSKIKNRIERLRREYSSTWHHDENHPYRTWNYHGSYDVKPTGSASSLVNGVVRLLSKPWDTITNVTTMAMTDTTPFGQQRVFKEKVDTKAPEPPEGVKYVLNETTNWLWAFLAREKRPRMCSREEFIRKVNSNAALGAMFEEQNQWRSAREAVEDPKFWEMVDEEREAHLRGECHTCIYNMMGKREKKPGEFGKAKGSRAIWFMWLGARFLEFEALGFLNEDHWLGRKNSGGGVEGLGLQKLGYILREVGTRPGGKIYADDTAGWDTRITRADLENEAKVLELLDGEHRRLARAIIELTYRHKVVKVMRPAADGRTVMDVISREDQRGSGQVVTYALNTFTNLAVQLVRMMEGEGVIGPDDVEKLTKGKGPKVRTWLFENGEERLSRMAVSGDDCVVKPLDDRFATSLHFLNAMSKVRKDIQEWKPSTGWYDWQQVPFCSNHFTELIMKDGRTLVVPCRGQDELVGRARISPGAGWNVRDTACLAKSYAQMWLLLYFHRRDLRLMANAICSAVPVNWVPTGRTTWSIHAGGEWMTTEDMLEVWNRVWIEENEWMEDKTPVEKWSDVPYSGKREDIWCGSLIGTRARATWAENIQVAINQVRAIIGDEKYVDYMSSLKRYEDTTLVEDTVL

B1: recombinant chimeric monoclonal antibody (mAb) 900, variant V4 (scFv-Fc, M252Y/S254T/T256E and H433K/N434F in the human IgG1 Fc) (antibody, V domains shown)
VH: EVQLQQSGAELVKPGASVKLSCKASGYIFTNYDINWVRQRPEQGLEWIGWIFPEDGRTKNNEKFKGKATLTTDKSSSTAYMQLSRLTSEDSAVYFCARGGGYGNYFDYWGQGTLVTVS
VL: DIVMTQAHKFMSTSVGDRVSITCKASQDVSTAVAWYQQKPGQSPKVLIYWASTRHTGVHDRFTGSGSGTDYTLTISSVQAEDLALYYCQQHYSNPLTFGAGTKLELK
**Q.** For B1, which Kd is on record?
**A.** Its Kd is ~2.3 nM.
